The test addresses HLA-A*0201 class I monomer of the iTopia Epitope Discovery System. Nature of the test: iTopia binding ED50. To be noted: modification not given.

The EC50 is the concentration at which the effect is half-maximal. Molecule YLSEKIFYV [PSMA 288-297 (L289(Nle), I297(Nle))] had an EC50 of 524 nM.

Source of the values: patent publication US20130195901A1.
